Data as given in patent publication US20040109854A1.

Molecular target: TRAF6 dm (amino acids 1-274) fused to the GAL4 DNA binding domain (pGBT9-TRAF6 dm) (yeast; human) (UniProt P04386)
Assay: cell-based or functional assay

recombinant TRAF6-inhibiting protein fused with the transcription activation domain of GAL4 (full length cDNA in pGAD424, expressed in yeast Y190) (from UniProt Q8TD23 1-568)
β-galactosidase activity titer (liquid β-galactosidase assay, yeast two-hybrid): 21 unit
